According to patent US20250043302A1, “MUTATED HYDROXYPHENYLPYRUVATE DIOXYGENASE POLYPEPTIDE, AND CODING GENE AND USE THEREOF” (BEIJING DABEINONG BIOTECHNOLOGY CO., LTD., priority 2021, published 2025):

Columns and labels:
Assay type in all cases: in vivo
[1] = tested on: Arabidopsis thaliana T1 plants; experiment: Topramezone tolerance of transgenic Arabidopsis thaliana T1 plants (spray, bleached leaf area grade, damage score); conditions: 7 DAT, Table 4; for Classification and statistics of the grade of pesticide damage: Grade 0 / Classification and statistics of the grade of pesticide damage: Grade 1 / Classification and statistics of the grade of pesticide damage: Grade 2 / Classification and statistics of the grade of pesticide damage: Grade 3: number of plants; for Scores: pesticide damage score 0-100
How it was run: (§1)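 T1 transformants selected by glufosinate; 18-day-old plants, with empty-vector and wild-type controls, sprayed with topramezone (25–200 g ai/ha), isoxaflutole (35–280 g ai/ha) or mesotrione (52.5–420 g ai/ha), water as 0×. Bleached leaf area fraction scored at 7 DAT as grades 0–3.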

[2] = tested on: Arabidopsis thaliana T1 plants; experiment: Isoxaflutole tolerance of transgenic Arabidopsis thaliana T1 plants (spray, bleached leaf area grade, damage score); set-up: Scores (pesticide damage): scale not given here; conditions: spray, Arabidopsis thaliana T1 plants; for Classification and statistics of the grade of pesticide damage: Grade 0 (number of plants) / Classification and statistics of the grade of pesticide damage: Grade 1 (number of plants) / Classification and statistics of the grade of pesticide damage: Grade 2 (number of plants) / Classification and statistics of the grade of pesticide damage: Grade 3 (number of plants): 16 plants
How it was run: as §1

[3] = tested on: Arabidopsis thaliana T1 plants; experiment: Mesotrione tolerance of transgenic Arabidopsis thaliana T1 plants (spray, bleached leaf area grade, damage score); set-up: Scores: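 damage score 0-100 computed as Σ(N×S)/(T×M)×100 over grades 0-3 with higher meaning more damage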; conditions: Arabidopsis thaliana T1 plants; for Grade 0 (classification and statistics of the grade of pesticide damage; number of plants) / Grade 1 (classification and statistics of the grade of pesticide damage; number of plants) / Grade 2 (classification and statistics of the grade of pesticide damage; number of plants) / Grade 3 (classification and statistics of the grade of pesticide damage; number of plants): 16 plants
How it was run: as §1

[4] = isoxaflutole 35 g ai/ha (0.5x field concentration)
[5] = isoxaflutole 70 g ai/ha (1x field concentration)

B1: AtHPPDm-F372A-F383W-02: nucleotide sequence encoding Arabidopsis thaliana HPPD with F372A+F383W; vector DBN11733 (nucleic acid)
DNA: ATGGGACATCAGAATGCTGCTGTATCAGAAAATCAAAATCATGATGATGGAGCCGCCTCCTCACCAGGGTTTAAGTTGGTTGGGTTCTCCAAGTTTGTACGGAAGAACCCAAAATCCGACAAGTTCAAGGTTAAACGCTTCCACCACATTGAATTCTGGTGCGGCGACGCCACCAATGTTGCTCGGCGTTTTTCATGGGGTTTAGGCATGAGATTCTCAGCAAAGAGTGACCTGAGCACCGGCAACATGGTTCATGCTAGCTATCTCTTAACATCTGGAGATTTGAGGTTTCTTTTCACGGCGCCGTACTCACCATCACTCTCCGCCGGCGAGATCAAACCCACCACGACTGCAAGCATACCTTCATTTGATCATGGTAGTTGCAGATCCTTCTTCTCGTCGCACGGCCTAGGGGTGCGCGCGGTCGCCATCGAAGTTGAAGATGCAGAATCAGCGTTTAGTATCAGCGTGGCAAATGGAGCTATTCCTTCCTCCCCTCCAATTGTCCTCAATGAGGCTGTAACTATTGCCGAGGTGAAGTTGTATGGAGATGTTGTGCTGAGATATGTTTCTTACAAGGCAGAGGACACTGAGAAATCTGAATTTTTGCCTGGTTTTGAAAGGGTCGAGGATGCTTCAAGTTTTCCTCTTGATTACGGCATACGACGGTTGGATCACGCGGTTGGAAATGTACCAGAACTTGGGCCGGCGCTCACTTATGTGGCTGGTTTCACTGGATTCCATCAATTTGCTGAGTTCACAGCTGATGATGTTGGGACTGCTGAAAGTGGGTTGAACTCTGCAGTCCTCGCCTCTAATGATGAAATGGTGCTCCTCCCGATCAACGAGCCTGTGCATGGCACCAAAAGGAAATCACAAATACAGACATATCTTGAGCACAATGAAGGTGCAGGGCTTCAACATCTTGCACTGATGTCTGAAGACATTTTCCGTACGCTGAGAGAGATGAGGAAGAGAAGTAGTATTGGTGGATTTGACTTCATGCCTTCTCCCCCACCAACTTACTACCAGAACTTGAAGAAGAGGGTTGGTGATGTGCTATCTGATGACCAGATCAAGGAGTGTGAAGAATTGGGCATTCTTGTTGATCGGGACGACCAAGGAACATTACTGCAGATAGCCACAAAACCACTTGGTGACCGCCCCACTATTTGGATTGAGATCATACAAAGAGTCGGCTGCATGATGAAGGATGAGGAAGGAAAAGCATATCAATCTGGTGGTTGTGGCGGCTTTGGGAAAGGAAACTTCTCTGAGCTGTTCAAATCCATCGAGGAGTATGAGAAGACCTTGGAGGCCAAGCAGCTCGTGGGTTGA
modifications: AtHPPDm-F372A-F383W-02 Nucleotide Sequence
notes: vector DBN11733
Classification and statistics of the grade of pesticide damage: Grade 0 ([1]; topramezone 25 g ai/ha (1×)): 9 | Classification and statistics of the grade of pesticide damage: Grade 1 ([1]; topramezone 25 g ai/ha (1×)): 7 | Classification and statistics of the grade of pesticide damage: Grade 2 ([1]; topramezone 25 g ai/ha (1×)): 0 | Classification and statistics of the grade of pesticide damage: Grade 3 ([1]; topramezone 25 g ai/ha (1×)): 0 | Classification and statistics of the grade of pesticide damage: Grade 0 ([1]; topramezone 100 g ai/ha (4×)): 6 | Classification and statistics of the grade of pesticide damage: Grade 1 ([1]; topramezone 100 g ai/ha (4×)): 7 | Classification and statistics of the grade of pesticide damage: Grade 2 ([1]; topramezone 100 g ai/ha (4×)): 1 | Classification and statistics of the grade of pesticide damage: Grade 3 ([1]; topramezone 100 g ai/ha (4×)): 2 | Scores ([1]; topramezone 25 g ai/ha (1×)): 15 | Scores ([1]; topramezone 100 g ai/ha (4×)): 31 | Resistance evaluation ([1]; topramezone 25 g ai/ha (1×)): highly | Resistance evaluation ([1]; topramezone 100 g ai/ha (4×)): moderately | Resistance evaluation [2, 4]: Highly | Scores (pesticide damage) [2, 4]: 15 | Classification and statistics of the grade of pesticide damage: Grade 0 (number of plants) [2, 4]: 10 | Classification and statistics of the grade of pesticide damage: Grade 1 (number of plants) [2, 4]: 5 | Classification and statistics of the grade of pesticide damage: Grade 2 (number of plants) [2, 4]: 1 | Classification and statistics of the grade of pesticide damage: Grade 3 (number of plants) [2, 4]: 0 | Resistance evaluation [2, 5]: Moderately | Scores (pesticide damage) [2, 5]: 29 | Classification and statistics of the grade of pesticide damage: Grade 0 (number of plants) [2, 5]: 5 | Classification and statistics of the grade of pesticide damage: Grade 1 (number of plants) [2, 5]: 9 | Classification and statistics of the grade of pesticide damage: Grade 2 (number of plants) [2, 5]: 1 | Classification and statistics of the grade of pesticide damage: Grade 3 (number of plants) [2, 5]: 1 | Resistance evaluation ([3]; mesotrione 52.5 g ai/ha): Moderately | Scores ([3]; mesotrione 52.5 g ai/ha): 21 | Grade 0 (classification and statistics of the grade of pesticide damage; number of plants) ([3]; mesotrione 52.5 g ai/ha): 8 | Grade 1 (classification and statistics of the grade of pesticide damage; number of plants) ([3]; mesotrione 52.5 g ai/ha): 6 | Grade 2 (classification and statistics of the grade of pesticide damage; number of plants) ([3]; mesotrione 52.5 g ai/ha): 2 | Grade 3 (classification and statistics of the grade of pesticide damage; number of plants) ([3]; mesotrione 52.5 g ai/ha): 0 | Resistance evaluation ([3]; mesotrione 105 g ai/ha): Poorly resistant | Scores ([3]; mesotrione 105 g ai/ha): 44 | Grade 0 (classification and statistics of the grade of pesticide damage; number of plants) ([3]; mesotrione 105 g ai/ha): 2 | Grade 1 (classification and statistics of the grade of pesticide damage; number of plants) ([3]; mesotrione 105 g ai/ha): 8 | Grade 2 (classification and statistics of the grade of pesticide damage; number of plants) ([3]; mesotrione 105 g ai/ha): 5 | Grade 3 (classification and statistics of the grade of pesticide damage; number of plants) ([3]; mesotrione 105 g ai/ha): 1
